Assay results as given in patent US20120201828A1 (Sanofi, published 2012).

B1: hu2H11R35R74-PEG4-NHAc-DM4 (D/A 8.4) (antibody, V domains shown)
VH: QVQLVQSGAEVVKPGASVKISCKASGYTFTAYYMHWVKQSPVQSLEWIGLVNPYNGFSSYNQKFQGKASLTVDRSSSTAYMELHSLTSEDSAVYYCAREFYGYRYFDVWGQGTAVTVSS
VL: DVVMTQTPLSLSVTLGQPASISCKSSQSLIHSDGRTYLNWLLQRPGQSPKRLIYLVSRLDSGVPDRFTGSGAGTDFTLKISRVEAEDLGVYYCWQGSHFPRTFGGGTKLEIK
modifications: DM4 through PEG4-NHAc linker on lysine residues, sites not given; average D/A 8.4 per antibody
notes: Antibody-drug conjugate of hu2H11R35R74; constant regions as for m2
B2: hu2H11R35R74-PEG4-Mal-DM4 (DAR 6.1) (antibody, V domains shown)
VH: QVQLVQSGAEVVKPGASVKISCKASGYTFTAYYMHWVKQSPVQSLEWIGLVNPYNGFSSYNQKFQGKASLTVDRSSSTAYMELHSLTSEDSAVYYCAREFYGYRYFDVWGQGTAVTVSS
VL: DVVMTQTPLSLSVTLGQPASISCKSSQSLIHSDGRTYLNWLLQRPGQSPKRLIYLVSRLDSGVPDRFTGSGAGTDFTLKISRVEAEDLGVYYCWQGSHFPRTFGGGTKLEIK
modifications: DM4 through PEG4-Mal linker on lysine residues, sites not given; average DAR 6.1
B3: hu2H11-R35R74-PEG8-AcNH-DM4 (DAR 4.9) (antibody, V domains shown)
VH: QVQLVQSGAEVVKPGASVKISCKASGYTFTAYYMHWVKQSPVQSLEWIGLVNPYNGFSSYNQKFQGKASLTVDRSSSTAYMELHSLTSEDSAVYYCAREFYGYRYFDVWGQGTAVTVSS
VL: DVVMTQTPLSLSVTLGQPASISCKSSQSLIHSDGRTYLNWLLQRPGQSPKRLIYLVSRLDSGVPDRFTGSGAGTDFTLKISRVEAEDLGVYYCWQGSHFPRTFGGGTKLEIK
modifications: DM4 through PEG8-AcNH linker on lysine residues, sites not given; average DAR 4.9
B4: hu2H11R35R74-PEG4-Mal-DM4 (DAR 7.00) (antibody, V domains shown)
VH: QVQLVQSGAEVVKPGASVKISCKASGYTFTAYYMHWVKQSPVQSLEWIGLVNPYNGFSSYNQKFQGKASLTVDRSSSTAYMELHSLTSEDSAVYYCAREFYGYRYFDVWGQGTAVTVSS
VL: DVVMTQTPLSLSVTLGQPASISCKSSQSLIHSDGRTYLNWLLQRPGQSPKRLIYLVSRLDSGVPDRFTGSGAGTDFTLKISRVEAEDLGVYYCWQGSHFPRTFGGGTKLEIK
modifications: DM4 through PEG4-Mal linker on lysine residues, sites not given; average DAR 7.00
B5: hu2H11R35R74-PEG4-NHAc-DM4 (D/A 6.3) (antibody, V domains shown)
VH: QVQLVQSGAEVVKPGASVKISCKASGYTFTAYYMHWVKQSPVQSLEWIGLVNPYNGFSSYNQKFQGKASLTVDRSSSTAYMELHSLTSEDSAVYYCAREFYGYRYFDVWGQGTAVTVSS
VL: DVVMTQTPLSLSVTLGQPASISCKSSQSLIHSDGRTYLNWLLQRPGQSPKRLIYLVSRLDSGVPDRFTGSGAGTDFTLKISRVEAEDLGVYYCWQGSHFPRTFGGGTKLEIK
modifications: DM4 through PEG4-NHAc linker on lysine residues, sites not given; average D/A 6.3 per antibody
notes: as for B1
B6: hu2H11R35R74 (antibody, V domains shown)
VH: QVQLVQSGAEVVKPGASVKISCKASGYTFTAYYMHWVKQSPVQSLEWIGLVNPYNGFSSYNQKFQGKASLTVDRSSSTAYMELHSLTSEDSAVYYCAREFYGYRYFDVWGQGTAVTVSS
VL: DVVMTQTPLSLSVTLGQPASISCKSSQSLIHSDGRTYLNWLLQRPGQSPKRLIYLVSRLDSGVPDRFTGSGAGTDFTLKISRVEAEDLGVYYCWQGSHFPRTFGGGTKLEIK
notes: only the variable domains are tied by name to humanized 2H11R35R74; also called humanized 2H11R35R74; naked hu2H11R35R74
B7: hu2H11R35R74-SPDB-DM4 (DAR 3.97) (antibody, V domains shown)
VH: QVQLVQSGAEVVKPGASVKISCKASGYTFTAYYMHWVKQSPVQSLEWIGLVNPYNGFSSYNQKFQGKASLTVDRSSSTAYMELHSLTSEDSAVYYCAREFYGYRYFDVWGQGTAVTVSS
VL: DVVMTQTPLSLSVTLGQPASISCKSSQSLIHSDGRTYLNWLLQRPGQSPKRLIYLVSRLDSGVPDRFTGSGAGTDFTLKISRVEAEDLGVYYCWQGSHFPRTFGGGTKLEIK
modifications: DM4 through SPDB linker on lysine residues, sites not given; average DAR 3.97
B8: hu2H11-R35R74-PEG4-Allyl-DM4 (DAR 5.3) (antibody, V domains shown)
VH: QVQLVQSGAEVVKPGASVKISCKASGYTFTAYYMHWVKQSPVQSLEWIGLVNPYNGFSSYNQKFQGKASLTVDRSSSTAYMELHSLTSEDSAVYYCAREFYGYRYFDVWGQGTAVTVSS
VL: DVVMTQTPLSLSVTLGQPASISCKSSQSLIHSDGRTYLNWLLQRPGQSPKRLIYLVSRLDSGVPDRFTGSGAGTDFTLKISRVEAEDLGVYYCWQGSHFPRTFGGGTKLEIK
modifications: DM4 through PEG4-Allyl linker on lysine residues, sites not given; average DAR 5.3
B9: hu2H11R35R74-PEG4-NHAc-DM4 (D/A 9.3) (antibody, V domains shown)
VH: QVQLVQSGAEVVKPGASVKISCKASGYTFTAYYMHWVKQSPVQSLEWIGLVNPYNGFSSYNQKFQGKASLTVDRSSSTAYMELHSLTSEDSAVYYCAREFYGYRYFDVWGQGTAVTVSS
VL: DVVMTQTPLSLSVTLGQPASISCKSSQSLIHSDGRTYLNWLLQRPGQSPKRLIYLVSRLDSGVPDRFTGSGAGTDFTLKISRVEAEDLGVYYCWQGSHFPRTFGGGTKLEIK
modifications: DM4 through PEG4-NHAc linker on lysine residues, sites not given; average D/A 9.3 per antibody
notes: as for B1
B10: hu2H11 (antibody, V domains shown)
VH: QVQLVQSGAEVVKPGASVKISCKASGYTFTAYYMHWVKQSPVQSLEWIGLVNPYNGFSSYNQKFQGKASLTVDKSSSTAYMELHSLTSEDSAVYYCAREFYGYRYFDVWGQGTAVTVSS
VL: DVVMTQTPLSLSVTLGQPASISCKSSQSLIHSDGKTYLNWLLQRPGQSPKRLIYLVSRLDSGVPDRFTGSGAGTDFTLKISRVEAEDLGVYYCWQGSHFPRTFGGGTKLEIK
notes: Humanized IgG made in CHO cells; also called hu53.2H11; humanized 53.2H11
B11: hu2H11-PEG4-NHAc-DM4 (D/A 7.5) (antibody, V domains shown)
VH: QVQLVQSGAEVVKPGASVKISCKASGYTFTAYYMHWVKQSPVQSLEWIGLVNPYNGFSSYNQKFQGKASLTVDKSSSTAYMELHSLTSEDSAVYYCAREFYGYRYFDVWGQGTAVTVSS
VL: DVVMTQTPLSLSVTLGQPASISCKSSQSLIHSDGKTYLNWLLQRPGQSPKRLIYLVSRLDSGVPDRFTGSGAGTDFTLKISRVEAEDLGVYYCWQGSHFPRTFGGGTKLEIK
modifications: DM4 through PEG4-NHAc linker on surface lysine residues, sites not given; average D/A 7.5 per antibody
notes: Antibody-drug conjugate of hu2H11; also called conjugated hu2H11

How the values were obtained:
huEphA2-mFc = molecular target: T1, huEphA2-mFc (human, UniProt P29317 24-534, limits assumed); assay: SPR, Biacore 3000; EphA2-Fc amine-coupled on C1 chip, IgG in flow, 25 C, 1:1 Langmuir fit
T1 construct: Immobilised antigen of the Biacore experiment; also called EphA2-Fc; extra-cellular domain of EphA2 receptor-Fc; not shown: mouse Fc (mFc)
T1 sequence (P29317 24-534 limits assumed): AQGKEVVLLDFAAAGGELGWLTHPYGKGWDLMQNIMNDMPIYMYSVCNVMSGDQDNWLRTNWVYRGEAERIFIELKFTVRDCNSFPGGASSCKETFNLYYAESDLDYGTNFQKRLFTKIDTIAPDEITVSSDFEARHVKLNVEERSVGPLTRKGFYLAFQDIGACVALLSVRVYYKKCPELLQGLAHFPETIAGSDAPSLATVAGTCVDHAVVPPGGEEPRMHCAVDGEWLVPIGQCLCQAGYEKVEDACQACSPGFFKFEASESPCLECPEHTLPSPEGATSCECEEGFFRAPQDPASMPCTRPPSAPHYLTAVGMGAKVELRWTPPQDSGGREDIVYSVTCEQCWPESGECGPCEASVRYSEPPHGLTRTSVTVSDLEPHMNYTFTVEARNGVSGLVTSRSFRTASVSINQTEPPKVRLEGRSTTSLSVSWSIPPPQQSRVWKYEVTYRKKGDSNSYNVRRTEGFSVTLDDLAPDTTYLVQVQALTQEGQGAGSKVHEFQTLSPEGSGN
Procedure: pH=4.5) was coupled to the matrix of a C1 sensor chip (GE healthcare BR-1005-40) at 10 μl/min using a standard amine coupling protocol with EDC (N-ethyl-N′-[dimethyl-aminopropyl]carbodiimide)/NHS (N-hydroxysuccinimide). The density was controlled at an increased response level of ˜100 response units (RU) in kinetic binding experiments. IgGs were diluted in 0.01 M Hepes, pH 7.4 containing 0.15 M NaCl, 3 mM EDTA, and 0.005% P20. All subsequent dilutions were made in the same buffer. All binding experiments were performed at 25° C. with IgG concentrations typically ranging from 50 to 0.2 nM at a flow rate of 50 μl/min.
Data were collected for approximately 12 min (2 min association time and 10 min dissociation time) and 1 min pulse at 30 μl/min of 1M NaCl, 50 mM NaOH was used to regenerate the surfaces. IgGs were also flowed over an uncoated cell and the sensorgrams from the blank runs were substracted from those obtained with EphA2-Fc coupled chips. Data were fitted to a 1:1 Langmuir binding model with drifting baseline. This algorithm calculates both the kₒₙ and the koff, from which the apparent equilibrium dissociation constant KD, is deduced as the ratio of the two rate constants (koff/kₒₙ).
The affinity constant was first measured with both naked hu2H11 and hu2H11R35R74.

[1] = molecular target: T2, EphA2 receptor on tumor cells (human, UniProt P29317 24-976); assay: cell-based or functional assay
T2 sequence (P29317 24-976): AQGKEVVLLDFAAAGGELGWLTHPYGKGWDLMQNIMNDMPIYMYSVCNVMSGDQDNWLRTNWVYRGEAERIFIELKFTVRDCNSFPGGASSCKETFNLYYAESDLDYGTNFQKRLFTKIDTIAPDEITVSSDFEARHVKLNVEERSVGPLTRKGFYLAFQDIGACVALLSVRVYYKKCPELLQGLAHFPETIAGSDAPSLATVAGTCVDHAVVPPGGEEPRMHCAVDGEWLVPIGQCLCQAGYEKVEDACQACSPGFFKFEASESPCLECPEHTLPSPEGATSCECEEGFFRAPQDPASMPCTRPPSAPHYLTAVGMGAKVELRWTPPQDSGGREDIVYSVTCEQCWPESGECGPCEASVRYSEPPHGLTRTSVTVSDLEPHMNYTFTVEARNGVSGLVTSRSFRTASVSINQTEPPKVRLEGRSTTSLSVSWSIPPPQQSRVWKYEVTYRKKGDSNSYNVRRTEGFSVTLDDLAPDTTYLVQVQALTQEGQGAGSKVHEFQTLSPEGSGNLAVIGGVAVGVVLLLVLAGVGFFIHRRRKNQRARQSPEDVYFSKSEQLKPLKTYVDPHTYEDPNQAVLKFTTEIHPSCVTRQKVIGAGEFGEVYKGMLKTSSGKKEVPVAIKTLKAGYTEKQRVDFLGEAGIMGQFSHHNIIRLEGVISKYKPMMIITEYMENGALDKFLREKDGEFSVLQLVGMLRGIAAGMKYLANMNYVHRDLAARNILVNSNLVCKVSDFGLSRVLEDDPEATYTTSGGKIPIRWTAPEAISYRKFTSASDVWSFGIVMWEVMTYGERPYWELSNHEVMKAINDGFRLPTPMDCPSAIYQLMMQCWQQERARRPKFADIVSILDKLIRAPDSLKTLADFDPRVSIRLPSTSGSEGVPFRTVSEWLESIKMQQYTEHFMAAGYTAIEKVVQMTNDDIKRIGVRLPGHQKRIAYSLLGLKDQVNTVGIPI

[2] = molecular target: T2, EphA2 receptor on tumor cells; assay: cell-based or functional assay; remark: listed apart in the source
[3] = molecular target: T2, EphA2 receptor on tumor cells; assay: cell-based or functional assay; remark: listed apart in the source

Binder	Ka (huEphA2-mFc) [M⁻¹]	Kd (huEphA2-mFc) [nM]	Ratio (KD against naked hu2H11) (huEphA2-mFc) [fold]	koff (huEphA2-mFc) [s⁻¹]	kon (huEphA2-mFc) [M⁻¹ s⁻¹]	other results
B1	3.76e+09	0.266	0.9	0.00111	4.15e+06	
B2						MDA-MB231 + naked 2H11 (1 uM) IC50 (nM), 14C thymidine uptake [1]: 25.1 nM; MDA-MB231 IC50 (nM), 14C thymidine uptake [1]: 0.1 nM; Ratio of IC50s (with naked 2H11 / alone) on MDA-MB231 [1]: 228
B3						IC50 (pM), + naked hu2H11R35R74 (1 uM), MDA MB231 cells [2]: 25000 pM; IC50 (pM), ADC alone, MDA MB231 cells, 14C thymidine uptake [2]: 400 pM; ratio of IC50s (+ naked hu2H11R35R74 / ADC alone) [2]: 62
B4						IC50 (M), cytotoxic activity on Lovo cells (WST8, 5 days) [3]: 1.16e-11 M
B5	3.55e+09	0.282	0.9	0.00119	4.21e+06	
B6	4.59e+09	0.218	0.7	0.00115	5.25e+06	
B7						MDA-MB231 + naked 2H11 (1 uM) IC50 (nM), 14C thymidine uptake [1]: 11.5 nM; MDA-MB231 IC50 (nM), 14C thymidine uptake [1]: 1.2 nM; Ratio of IC50s (with naked 2H11 / alone) on MDA-MB231 [1]: 9
B8						IC50 (pM), + naked hu2H11R35R74 (1 uM), MDA MB231 cells [2]: 7820 pM; IC50 (pM), ADC alone, MDA MB231 cells, 14C thymidine uptake [2]: 161 pM; ratio of IC50s (+ naked hu2H11R35R74 / ADC alone) [2]: 49
B9	2.38e+09	0.421	1.4	0.00129	3.08e+06	
B10	3.39e+09	0.298	1	0.0011	3.71e+06	
B11	6.16e+08	1.62	5.4	0.00242	1.49e+06	
